Laboratory results from US11891634B2, “PDE5A destabilizing domains” (The Board of Trustees of the Leland Stanford Junior …, priority 2017, dated 2024).

Tests used:
[1] = system: HCT116 cells transduced with the constructs; assay: Response to Sildenafil, GFP expression by flow cytometry in HCT116; assay type: cell-based, human; conditions: for MFI / Stabilization ratio with Sildenafil: 48 hours, HCT116
Procedure: Similar experiments were performed in HCT116 cells using sildenafil. The above-mentioned DDs were cloned as AcGFP fusion into pELNS vector carrying mCherry marker and packaged in lentiviral vectors. HCT116 cells were transduced with the constructs and stable integrants were selected by cell sorting using mCherry marker. Cells were treated with sildenafil at the following μM concentrations: 0.01, 0.02, 0.05, 0.14, 0.41, 1.23, 3.7, 11.11, 33.33, and 100 for a duration of 48 hours. The fluorescence was analyzed by flow cytometry and the mean fluorescence intensity was calculated for all samples. […] The stabilization ratios are shown in Table 24 and Table 25 and the basal expression is show in Table 26.

[2] = system: HCT 116 cells transduced with the PDE5A DD derived GFP constructs; assay: Response to Tadalafil, GFP expression by FACS in HCT116; assay type: cell-based, human; conditions: for MFI / Stabilization ratio with Tadalafil: 48 hours, HCT116
Procedure: PDE5AN (#3) was cloned as AcGFP fusion into pELNS vector carrying mCherry marker and packaged in lentiviral vectors. HCT116 cells were transduced with the construct and stable integrants were selected by cell sorting using mCherry marker. Cells were treated with vehicle (dimethyl sulfoxide, DMSO) or varying doses of Tadalafil (TDF) for 48 hrs with doses ranging from 0.01 μM to 100 μM. Following the treatment, cells were analyzed for GFP expression using FACS. Basal expression was calculated as the ratio of GFP signal in the absence of ligand for a given cell line to auto fluorescence of parental HCT-116 cells. Stabilization ratio was calculated as the ratio of the GFP signal observed in the presence of stabilizing ligand to the signal from the same cell line in the absence of ligand.
HCT 116 cells transduced with the PDE5A DD derived GFP constructs were also tested with increasing doses of Tadalafil. The HCT116 cells were incubated for 48 hours with Tadalafil starting at dose 0.01 μM to 100 μM. The GFP intensity of the Tadalafil treated samples was compared to the parental untransduced HCT116 and DMSO treated cells for each construct. The mean fluorescence intensity was calculated for each sample and used to calculate the stabilization ratios as well as the basal expression for each construct. The stabilization ratios are shown in Table 19 and Table 20 and the basal expression is show in Table 21.

B1: PDE5AC (#42): AcGFP fused to C-terminal DD 535-860 of PDE5A (E535D, K555R, F564S, Q589R, K630R, C677R, N742S, I799T, M816A), SEQ ID NO. 28 (protein)
chain: DETRELQSLAAAVVPSAQTLRITDFSFSDSELSDLETALCTIRMFTDLNLVQNFRMKHEVLCRWILSVKKNYRKNVAYHNWRHAFNTAQCMFAALRAGKIQNKLTDLEILALLIAALSHDLDHRGVNNSYIQRSEHPLAQLYRHSIMEHHHFDQCLMILNSPGNQILSGLSIEEYKTTLKIIKQAILATDLALYIKRRGEFFELIRKSQFNLEDPHQKELFLAMLMTACDLSAITKPWPIQQRIAELVATEFFDQGDRERKELNTEPTDLMNREKKNKIPSAQVGFIDAICLQLYEALTHVSEDCFPLLDGCRKNRQKWQALAEQQ
modifications: /note=“Description of Artificial Sequence Synthetic Destabilizing Domain (DD)”
[1]; DMSO (no Sildenafil)
  MFI: 23943
[1]; Sildenafil 0.01 μM vs DMSO
  Stabilization ratio with Sildenafil: 1.0
[1]; Sildenafil 0.01 μM
  MFI: 23295
[1]; Sildenafil 0.02 μM vs DMSO
  Stabilization ratio with Sildenafil: 1.0
[1]; Sildenafil 0.02 μM
  MFI: 23606
[1]; Sildenafil 0.05 μM vs DMSO
  Stabilization ratio with Sildenafil: 1.0
[1]; Sildenafil 0.05 μM
  MFI: 24817
[1]; Sildenafil 0.14 μM vs DMSO
  Stabilization ratio with Sildenafil: 1.2
[1]; Sildenafil 0.14 μM
  MFI: 29495
[1]; Sildenafil 0.41 μM vs DMSO
  Stabilization ratio with Sildenafil: 1.7
[1]; Sildenafil 0.41 μM
  MFI: 40817
[1]; Sildenafil 1.23 μM vs DMSO
  Stabilization ratio with Sildenafil: 2.6
[1]; Sildenafil 1.23 μM
  MFI: 63410
[1]; Sildenafil 3.70 μM vs DMSO
  Stabilization ratio with Sildenafil: 3.8
[1]; Sildenafil 3.70 μM
  MFI: 91798
[1]; Sildenafil 11.11 μM vs DMSO
  Stabilization ratio with Sildenafil: 5.3
[1]; Sildenafil 11.11 μM
  MFI: 127187
[1]; Sildenafil 33.33 μM vs DMSO
  Stabilization ratio with Sildenafil: 6.3
[1]; Sildenafil 33.33 μM
  MFI: 149906
[1]; Sildenafil 100.00 μM vs DMSO
  Stabilization ratio with Sildenafil: 6.9
[1]; Sildenafil 100.00 μM
  MFI: 164269
[1]; Table 26, MFI with DMSO / parental HCT116, Sildenafil experiment
  Basal expression: 18.6
[2]; DMSO (no Tadalafil)
  MFI: 22601
[2]; Table 21, MFI with DMSO / parental HCT116, Tadalafil experiment
  Basal expression: 17.66
[2]; Tadalafil 0.01 μM vs DMSO
  Stabilization ratio with Tadalafil: 1.0
[2]; Tadalafil 0.01 μM
  MFI: 22787
[2]; Tadalafil 0.02 μM vs DMSO
  Stabilization ratio with Tadalafil: 1.0
[2]; Tadalafil 0.02 μM
  MFI: 23274
[2]; Tadalafil 0.05 μM vs DMSO
  Stabilization ratio with Tadalafil: 1.0
[2]; Tadalafil 0.05 μM
  MFI: 23278
[2]; Tadalafil 0.14 μM vs DMSO
  Stabilization ratio with Tadalafil: 1.1
[2]; Tadalafil 0.14 μM
  MFI: 24532
[2]; Tadalafil 0.41 μM vs DMSO
  Stabilization ratio with Tadalafil: 1.2
[2]; Tadalafil 0.41 μM
  MFI: 26765
[2]; Tadalafil 1.23 μM vs DMSO
  Stabilization ratio with Tadalafil: 1.6
[2]; Tadalafil 1.23 μM
  MFI: 35325
[2]; Tadalafil 3.7 μM vs DMSO
  Stabilization ratio with Tadalafil: 2.6
[2]; Tadalafil 3.7 μM
  MFI: 59821
[2]; Tadalafil 11.11 μM vs DMSO
  Stabilization ratio with Tadalafil: 4.1
[2]; Tadalafil 11.11 μM
  MFI: 92400
[2]; Tadalafil 33.33 μM vs DMSO
  Stabilization ratio with Tadalafil: 5.4
[2]; Tadalafil 33.33 μM
  MFI: 122658
[2]; Tadalafil 100 μM vs DMSO
  Stabilization ratio with Tadalafil: 6.2
[2]; Tadalafil 100 μM
  MFI: 139002
